Measured values as given in the supplement of paper PMC10065799, “High-throughput profiling of sequence recognition by tyrosine kinases and SH2 domains using bacterial peptide display” (eLife, 2023).

Experiments:
AncSZ = test: phosphorylation enrichment, bacterial display (enrichment ratio); higher = better substrate or ligand; peptides without Tyr show the background
EPHB1 = EPHB1 (UniProt P54762); test: as above
EPHB2 = EPHB2 (UniProt P29323); test: as above
FGFR1 = FGFR1 (UniProt P11362); test: as above
FGFR3 = FGFR3 (UniProt P22607); test: as above
FGFR3, sequence (P22607 whole entry, looked up): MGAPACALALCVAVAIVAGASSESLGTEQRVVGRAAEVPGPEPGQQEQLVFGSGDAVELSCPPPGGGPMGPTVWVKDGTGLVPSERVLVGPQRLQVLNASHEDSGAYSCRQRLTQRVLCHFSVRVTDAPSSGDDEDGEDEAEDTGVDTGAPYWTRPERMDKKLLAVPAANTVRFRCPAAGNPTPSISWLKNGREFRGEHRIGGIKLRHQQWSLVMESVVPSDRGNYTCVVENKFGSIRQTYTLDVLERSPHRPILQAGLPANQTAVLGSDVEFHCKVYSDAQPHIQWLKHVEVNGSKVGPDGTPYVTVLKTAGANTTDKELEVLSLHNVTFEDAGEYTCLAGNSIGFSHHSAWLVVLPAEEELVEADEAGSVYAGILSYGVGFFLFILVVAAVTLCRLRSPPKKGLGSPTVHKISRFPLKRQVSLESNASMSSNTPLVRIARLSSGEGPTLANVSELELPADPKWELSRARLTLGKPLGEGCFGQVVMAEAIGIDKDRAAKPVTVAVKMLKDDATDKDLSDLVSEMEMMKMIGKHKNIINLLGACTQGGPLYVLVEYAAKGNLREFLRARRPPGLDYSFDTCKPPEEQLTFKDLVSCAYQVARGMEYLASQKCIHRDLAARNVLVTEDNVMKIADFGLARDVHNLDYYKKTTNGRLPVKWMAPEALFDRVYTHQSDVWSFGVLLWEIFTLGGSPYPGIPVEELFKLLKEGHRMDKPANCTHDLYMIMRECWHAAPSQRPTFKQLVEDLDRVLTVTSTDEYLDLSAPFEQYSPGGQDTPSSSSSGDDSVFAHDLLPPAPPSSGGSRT

Fer (mouse) = test: as above
Fes = Fes (UniProt P07332); test: as above
Fes, sequence (P07332 whole entry, looked up): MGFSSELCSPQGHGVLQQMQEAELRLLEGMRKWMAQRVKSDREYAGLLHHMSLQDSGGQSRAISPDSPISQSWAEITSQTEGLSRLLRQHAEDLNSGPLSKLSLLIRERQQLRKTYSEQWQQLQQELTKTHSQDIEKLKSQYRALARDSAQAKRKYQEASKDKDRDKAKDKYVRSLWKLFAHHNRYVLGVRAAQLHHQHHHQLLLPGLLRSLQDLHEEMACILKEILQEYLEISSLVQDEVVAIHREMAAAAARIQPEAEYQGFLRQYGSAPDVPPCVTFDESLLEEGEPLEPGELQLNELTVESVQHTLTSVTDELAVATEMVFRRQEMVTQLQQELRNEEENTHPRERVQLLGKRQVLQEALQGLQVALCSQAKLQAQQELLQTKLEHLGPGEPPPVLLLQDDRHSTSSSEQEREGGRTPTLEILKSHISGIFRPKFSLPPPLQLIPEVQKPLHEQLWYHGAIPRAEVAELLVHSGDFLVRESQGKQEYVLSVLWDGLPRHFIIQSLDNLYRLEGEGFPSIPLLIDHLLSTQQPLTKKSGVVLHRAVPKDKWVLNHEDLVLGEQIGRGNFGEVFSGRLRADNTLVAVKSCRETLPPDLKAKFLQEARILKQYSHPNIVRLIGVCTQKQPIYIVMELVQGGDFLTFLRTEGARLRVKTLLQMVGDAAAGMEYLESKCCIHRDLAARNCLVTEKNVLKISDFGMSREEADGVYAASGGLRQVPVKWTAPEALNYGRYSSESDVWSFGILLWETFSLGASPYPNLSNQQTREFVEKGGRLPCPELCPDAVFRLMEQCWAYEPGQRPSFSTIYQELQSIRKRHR

Fyn = Fyn (UniProt P06241); test: as above
Hck = Hck (UniProt P08631); test: as above
Jak2 = Jak2 (UniProt O60674); test: as above
Jak2, sequence (O60674 whole entry, looked up): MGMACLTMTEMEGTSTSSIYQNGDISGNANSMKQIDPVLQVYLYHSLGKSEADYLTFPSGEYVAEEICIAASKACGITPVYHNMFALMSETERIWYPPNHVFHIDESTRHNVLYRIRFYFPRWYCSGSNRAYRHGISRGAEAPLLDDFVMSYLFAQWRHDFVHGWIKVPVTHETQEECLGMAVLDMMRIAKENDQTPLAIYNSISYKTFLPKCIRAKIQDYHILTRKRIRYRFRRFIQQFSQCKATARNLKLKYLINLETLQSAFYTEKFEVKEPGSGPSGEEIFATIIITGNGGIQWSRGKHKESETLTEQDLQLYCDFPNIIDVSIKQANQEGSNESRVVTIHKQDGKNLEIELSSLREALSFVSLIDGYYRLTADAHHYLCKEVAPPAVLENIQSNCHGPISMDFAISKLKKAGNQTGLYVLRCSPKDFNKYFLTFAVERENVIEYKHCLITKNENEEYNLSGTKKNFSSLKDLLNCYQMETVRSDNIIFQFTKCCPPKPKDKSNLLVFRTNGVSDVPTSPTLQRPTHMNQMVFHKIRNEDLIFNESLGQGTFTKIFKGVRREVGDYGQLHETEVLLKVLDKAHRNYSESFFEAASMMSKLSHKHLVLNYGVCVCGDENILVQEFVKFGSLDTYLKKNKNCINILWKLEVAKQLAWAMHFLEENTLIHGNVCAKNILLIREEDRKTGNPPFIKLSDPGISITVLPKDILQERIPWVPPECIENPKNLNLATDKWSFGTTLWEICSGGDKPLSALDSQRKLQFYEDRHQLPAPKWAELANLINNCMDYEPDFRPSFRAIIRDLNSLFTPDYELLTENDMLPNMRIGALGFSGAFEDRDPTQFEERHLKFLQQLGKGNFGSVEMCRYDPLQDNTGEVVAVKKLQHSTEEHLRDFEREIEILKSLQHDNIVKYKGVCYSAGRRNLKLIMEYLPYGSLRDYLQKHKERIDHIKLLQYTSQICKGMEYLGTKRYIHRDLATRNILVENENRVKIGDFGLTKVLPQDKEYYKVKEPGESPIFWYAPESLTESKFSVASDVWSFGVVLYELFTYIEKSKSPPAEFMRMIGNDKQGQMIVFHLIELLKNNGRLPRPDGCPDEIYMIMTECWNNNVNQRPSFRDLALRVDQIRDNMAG

MERTK = MERTK (UniProt Q12866); test: as above
MERTK, sequence (Q12866 whole entry, looked up): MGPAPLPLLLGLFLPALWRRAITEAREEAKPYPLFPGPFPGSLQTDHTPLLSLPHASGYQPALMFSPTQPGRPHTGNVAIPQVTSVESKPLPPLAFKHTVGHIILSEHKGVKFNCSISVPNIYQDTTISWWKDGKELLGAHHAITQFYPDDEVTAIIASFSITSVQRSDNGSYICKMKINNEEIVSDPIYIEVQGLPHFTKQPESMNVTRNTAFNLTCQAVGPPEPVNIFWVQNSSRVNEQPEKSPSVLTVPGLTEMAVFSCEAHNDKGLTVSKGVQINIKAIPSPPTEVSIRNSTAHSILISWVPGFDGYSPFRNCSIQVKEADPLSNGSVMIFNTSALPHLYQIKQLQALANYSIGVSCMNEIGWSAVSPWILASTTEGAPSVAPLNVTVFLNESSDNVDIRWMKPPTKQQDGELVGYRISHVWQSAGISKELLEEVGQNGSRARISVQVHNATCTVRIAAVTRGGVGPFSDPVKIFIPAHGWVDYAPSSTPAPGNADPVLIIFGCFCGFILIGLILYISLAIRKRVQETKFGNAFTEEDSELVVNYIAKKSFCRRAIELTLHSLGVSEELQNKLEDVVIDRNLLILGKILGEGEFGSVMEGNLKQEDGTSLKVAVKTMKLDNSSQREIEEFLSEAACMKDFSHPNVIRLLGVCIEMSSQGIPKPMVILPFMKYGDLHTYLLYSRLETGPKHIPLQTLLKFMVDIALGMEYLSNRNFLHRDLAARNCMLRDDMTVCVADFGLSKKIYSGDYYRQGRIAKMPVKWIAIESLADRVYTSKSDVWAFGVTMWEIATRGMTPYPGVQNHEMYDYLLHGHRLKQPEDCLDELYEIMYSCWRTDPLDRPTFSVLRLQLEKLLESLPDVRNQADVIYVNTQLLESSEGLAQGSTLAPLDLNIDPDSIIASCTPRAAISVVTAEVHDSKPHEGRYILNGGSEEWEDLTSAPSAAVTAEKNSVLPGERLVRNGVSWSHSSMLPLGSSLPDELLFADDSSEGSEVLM

c-Abl (mouse) = test: as above
c-Src = test: as above
Grb2 SH2 = Grb2 SH2 (UniProt P62993); test: SH2 binding enrichment of the phosphorylated peptide, bacterial display (enrichment ratio); higher = better substrate or ligand; peptides without Tyr show the background
Grb2 SH2, sequence (P62993 whole entry, looked up): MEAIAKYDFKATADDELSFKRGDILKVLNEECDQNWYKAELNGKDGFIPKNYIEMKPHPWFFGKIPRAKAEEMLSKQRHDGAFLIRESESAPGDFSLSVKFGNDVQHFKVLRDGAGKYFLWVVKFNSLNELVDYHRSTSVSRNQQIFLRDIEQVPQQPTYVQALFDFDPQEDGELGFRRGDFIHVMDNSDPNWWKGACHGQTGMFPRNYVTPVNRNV

SHP2-C SH2 = test: as above
c-Src SH2 = test: as above
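Throughout, for SH2 binding enrichment of the phosphorylated peptide, bacterial display: peptide library displayed on the E. coli surface as eCPX fusions, selected cells deep-sequenced, score is each peptide's frequency after selection divided by its frequency in the input.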
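Throughout, for phosphorylation enrichment, bacterial display: 11-residue human phosphosite peptides and single-mutation variants displayed on the E. coli surface, counted by deep sequencing, each peptide's frequency after selection divided by its frequency in the unselected input library; frequency after pTyr selection over input frequency; kinase dosed for 20-30% of maximal phosphorylation in three min.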

EPHB1, sequence (P54762 whole entry, looked up): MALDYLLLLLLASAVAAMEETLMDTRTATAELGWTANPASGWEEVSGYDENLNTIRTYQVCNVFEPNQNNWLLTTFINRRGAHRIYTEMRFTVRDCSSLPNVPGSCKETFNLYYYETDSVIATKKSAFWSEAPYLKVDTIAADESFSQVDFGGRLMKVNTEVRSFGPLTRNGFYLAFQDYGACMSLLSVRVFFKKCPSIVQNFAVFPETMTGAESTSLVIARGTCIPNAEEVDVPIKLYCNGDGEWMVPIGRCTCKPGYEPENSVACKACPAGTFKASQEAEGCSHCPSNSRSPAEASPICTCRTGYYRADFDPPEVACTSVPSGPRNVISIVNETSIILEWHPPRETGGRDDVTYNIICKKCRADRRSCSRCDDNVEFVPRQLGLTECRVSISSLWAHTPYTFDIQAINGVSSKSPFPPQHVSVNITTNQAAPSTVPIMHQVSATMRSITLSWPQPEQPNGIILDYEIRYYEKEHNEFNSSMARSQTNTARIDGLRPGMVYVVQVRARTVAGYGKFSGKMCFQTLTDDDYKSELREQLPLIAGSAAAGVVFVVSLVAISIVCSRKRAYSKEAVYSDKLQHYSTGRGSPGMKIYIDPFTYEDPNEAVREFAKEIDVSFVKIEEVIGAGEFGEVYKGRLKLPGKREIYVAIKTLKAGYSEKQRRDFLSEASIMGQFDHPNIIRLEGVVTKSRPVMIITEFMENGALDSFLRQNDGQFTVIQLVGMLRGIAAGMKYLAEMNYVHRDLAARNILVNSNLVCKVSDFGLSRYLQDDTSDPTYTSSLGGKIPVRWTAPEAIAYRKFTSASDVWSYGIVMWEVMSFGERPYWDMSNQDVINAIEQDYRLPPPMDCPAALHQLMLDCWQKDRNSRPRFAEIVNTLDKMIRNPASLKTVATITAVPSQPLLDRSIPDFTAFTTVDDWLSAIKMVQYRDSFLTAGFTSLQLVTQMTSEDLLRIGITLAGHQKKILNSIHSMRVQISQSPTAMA

| Sequence | phosphorylation enrichment (AncSZ) | phosphorylation enrichment (EPHB1) | phosphorylation enrichment (EPHB2) | phosphorylation enrichment (FGFR1) | phosphorylation enrichment (FGFR3) | phosphorylation enrichment (Fer (mouse)) | phosphorylation enrichment (Fes) | phosphorylation enrichment (Fyn) | phosphorylation enrichment (Hck) | phosphorylation enrichment (Jak2) | phosphorylation enrichment (MERTK) | phosphorylation enrichment (c-Abl (mouse)) | phosphorylation enrichment (c-Src) | SH2 binding enrichment (Grb2 SH2) | SH2 binding enrichment (SHP2-C SH2) | SH2 binding enrichment (c-Src SH2) |
| --- | --- | --- | --- | --- | --- | --- | --- | --- | --- | --- | --- | --- | --- | --- | --- | --- |
| TQKLAYVELQQ [CENPF_Y700_M701V] | 1.07 | 0.507 | 0.561 | 0.754 | 0.643 | 0.449 | 1 | 0.445 | 0.453 | 0.904 | 0.395 | 1.03 | 0.525 | 0.874 | 1.75 | 0.932 |
| TSKLSYLDPRI [TOP1_Y723_N722S] | 0.639 | 0.607 | 0.427 | 0.611 | 0.592 | 0.619 | 0.679 | 0.435 | 0.446 | 0.939 | 0.539 | 0.567 | 0.479 | 0.833 | 0.548 | 0.535 |
| TSNQEYLFLSM [FGFR1_Y766_D768Y_YF] | 1.21 | 0.765 | 0.721 | 5.2 | 3.32 | 0.557 | 1.09 | 0.574 | 0.572 | 1.06 | 0.469 | 0.813 | 0.488 | 0.877 | 0.563 | 0.358 |
| TSPKSCPSQKH [CAP2_Y316_Y316C] | 0.546 | 0.385 | 0.361 | 0.432 | 0.521 | 0.385 | 0.619 | 0.461 | 0.472 | 0.73 | 0.476 | 0.688 | 0.415 | 0.971 | 0.967 | 0.759 |
| TSSAVYMNLAS [GATAD2B_Y317_I316V] | 0.759 | 1.67 | 0.65 | 1.31 | 1.09 | 0.818 | 0.83 | 3.21 | 4.17 | 0.776 | 3.69 | 0.755 | 3.04 | 7.6 | 1.78 | 1.88 |
| TVQVAYYTMMM [SPATA17_Y83] | 1.91 | 3.4 | 1.76 | 10.8 | 9.18 | 3.74 | 1.85 | 2 | 2.19 | 4.2 | 9.05 | 1.36 | 4.49 | 0.782 | 0.852 | 1.25 |
| TVQVAYYTVMM [SPATA17_Y83_M86V] | 1.52 | 2.96 | 1.61 | 5.72 | 4.63 | 1.59 | 1.5 | 1.59 | 1.74 | 2.57 | 5.44 | 0.972 | 2.09 | 1.06 | 0.812 | 0.925 |
| VATRWYRSPEL [CDKL5_Y177] | 0.834 | 0.421 | 0.516 | 0.372 | 0.518 | 0.384 | 0.73 | 0.385 | 0.482 | 1 | 0.459 | 0.575 | 0.448 | 1.07 | 0.604 | 0.523 |
| VDGSVYKLHPS [GCK_Y413] | 0.581 | 0.467 | 0.543 | 0.536 | 0.583 | 0.642 | 0.655 | 2.64 | 1.03 | 0.735 | 0.424 | 0.614 | 3.28 | 0.755 | 1.01 | 0.488 |
| VDHFGYTKDDK [APOB_Y740] | 0.709 | 0.388 | 0.327 | 0.497 | 0.498 | 0.408 | 0.764 | 0.369 | 0.463 | 0.762 | 0.395 | 0.67 | 0.393 | 0.819 | 0.95 | 0.592 |
| VDSAHYKLLET [DTX3L_Y385] | 0.665 | 0.355 | 0.574 | 0.485 | 0.657 | 0.427 | 0.722 | 0.485 | 0.543 | 0.517 | 0.419 | 0.466 | 0.401 | 0.793 | 0.67 | 0.517 |
| VDSLRYIFPKL [EIF2B3_Y92_A87V_YF] | 0.704 | 0.449 | 0.38 | 0.486 | 0.51 | 0.463 | 0.9 | 0.372 | 0.385 | 0.822 | 0.531 | 0.85 | 0.526 | 1.01 | 1.27 | 0.752 |
| VDSNPYSRLMA [UBA5_Y53] | 0.608 | 0.465 | 0.488 | 0.468 | 0.533 | 1.04 | 0.657 | 0.756 | 1.72 | 0.47 | 0.524 | 0.469 | 1.16 | 0.699 | 3.31 | 1.57 |
| VDSNPYSRLVA [UBA5_Y53_M57V] | 0.743 | 0.55 | 0.584 | 0.465 | 0.559 | 0.785 | 0.64 | 0.553 | 1.21 | 0.611 | 0.445 | 0.648 | 1.02 | 1.38 | 3.46 | 1.7 |
| VDTLWYKFLKR [EPM2A_Y86_F84L] | 0.868 | 0.46 | 0.763 | 0.414 | 0.611 | 0.466 | 1.11 | 0.411 | 0.441 | 0.892 | 0.374 | 0.68 | 0.366 | 0.943 | 0.573 | 0.426 |
| VECQVYAEDPY [PCCA_Y401_R399Q] | 1.51 | 0.828 | 0.8 | 0.575 | 1.12 | 0.846 | 1.65 | 0.765 | 0.669 | 1.28 | 0.466 | 0.981 | 1.02 | 0.631 | 0.719 | 0.457 |
| VEDHFYEGGIG [TKT_Y564_YF] | 1.24 | 0.63 | 0.543 | 0.58 | 0.875 | 0.704 | 1.12 | 0.684 | 0.538 | 1.13 | 0.575 | 0.893 | 0.594 | 0.592 | 0.554 | 4.29 |

| Sequence | phosphorylation enrichment (AncSZ) | phosphorylation enrichment (EPHB1) | phosphorylation enrichment (EPHB2) | phosphorylation enrichment (FGFR1) | phosphorylation enrichment (FGFR3) | phosphorylation enrichment (Fer (mouse)) | phosphorylation enrichment (Fes) | phosphorylation enrichment (Fyn) | phosphorylation enrichment (Hck) | phosphorylation enrichment (Jak2) | phosphorylation enrichment (MERTK) | phosphorylation enrichment (c-Abl (mouse)) | phosphorylation enrichment (c-Src) | SH2 binding enrichment (Grb2 SH2) | SH2 binding enrichment (SHP2-C SH2) | SH2 binding enrichment (c-Src SH2) |
| --- | --- | --- | --- | --- | --- | --- | --- | --- | --- | --- | --- | --- | --- | --- | --- | --- |
| VEYAKYGSLQG [RET_Y809_R813Q] | 0.614 | 0.505 | 0.438 | 0.549 | 0.539 | 0.458 | 0.662 | 1.44 | 0.846 | 0.58 | 0.418 | 0.523 | 1.44 | 0.852 | 4.76 | 0.786 |
| VFDMLYQLANL [USP24_Y1087] | 1.52 | 1.32 | 1.34 | 0.754 | 0.82 | 14.1 | 1.08 | 3 | 3.29 | 0.874 | 2.5 | 0.945 | 5.01 | 1.53 | 1.84 | 1.11 |
| VFSATYHPDHW [EFCAB12_Y544_P541S_YF] | 0.739 | 0.518 | 0.519 | 0.548 | 0.614 | 0.55 | 0.785 | 0.472 | 0.466 | 0.807 | 0.492 | 0.676 | 0.761 | 0.834 | 0.699 | 0.565 |
| VHKEGYNKLNQ [ZNF676_Y98] | 0.55 | 0.467 | 0.331 | 0.356 | 0.511 | 0.367 | 0.539 | 0.38 | 0.381 | 0.668 | 0.426 | 0.752 | 0.463 | 0.89 | 0.624 | 0.416 |
| VIEQRYNETWL [SLC2A4_Y56_S55R] | 0.809 | 0.467 | 0.519 | 0.516 | 0.553 | 0.457 | 1.05 | 0.538 | 0.468 | 0.744 | 0.381 | 0.659 | 0.402 | 0.92 | 0.497 | 0.605 |
| VIESSYQVAKA [CPT1B_Y534] | 0.7 | 0.454 | 0.483 | 0.489 | 0.404 | 0.448 | 0.815 | 0.457 | 0.577 | 0.535 | 0.44 | 0.558 | 0.483 | 0.906 | 0.782 | 0.537 |
| VIEYSYTSADG [DHCR7_Y382_C380Y] | 1.34 | 0.699 | 0.633 | 0.711 | 0.82 | 0.538 | 1.19 | 0.497 | 0.557 | 0.897 | 0.365 | 0.686 | 0.536 | 0.927 | 3.63 | 6.21 |
| VISNAYVDLSP [HSD17B4_Y602_A606S] | 1.11 | 0.443 | 0.523 | 0.896 | 0.62 | 0.511 | 0.818 | 0.534 | 0.542 | 0.829 | 0.518 | 0.711 | 0.525 | 0.593 | 0.753 | 3.09 |
| VKANTYEKYWL [GATM_Y100_P105L] | 0.794 | 0.661 | 0.5 | 0.582 | 0.541 | 2.47 | 0.837 | 0.668 | 0.583 | 0.733 | 0.875 | 0.644 | 0.652 | 0.993 | 0.687 | 1.14 |
| VKANTYENFWP [GATM_Y100_K102N_YF] | 0.926 | 3.6 | 2.03 | 0.415 | 0.661 | 2.02 | 1.04 | 3.61 | 2.1 | 0.954 | 3.58 | 0.904 | 4.08 | 12.5 | 1.58 | 2.84 |
| VKANTYENYWP [GATM_Y100_K102N] | 0.893 | 7.05 | 7.05 | 1.17 | 0.818 | 1.2 | 0.81 | 2.59 | 1.65 | 0.994 | 2.41 | 0.801 | 3.07 | 13.2 | 1.9 | 3.55 |
| VMSGPYELKAL [IL1B_Y140] | 0.51 | 0.303 | 0.512 | 0.419 | 0.57 | 0.447 | 0.622 | 0.564 | 0.491 | 0.463 | 0.351 | 0.481 | 0.873 | 0.92 | 1.52 | 0.533 |
| VNCHQYDGLVG [ATP2A2_Y407_E412G] | 0.931 | 0.433 | 0.546 | 0.559 | 0.673 | 0.518 | 0.847 | 0.48 | 0.502 | 0.736 | 0.451 | 0.684 | 0.559 | 0.785 | 0.686 | 11.1 |
| VNKIYHPDFIV [LIG3_Y768_Y768H] | 0.62 | 0.355 | 0.417 | 0.453 | 0.589 | 0.388 | 0.715 | 0.446 | 0.481 | 0.796 | 0.483 | 0.562 | 0.484 | 0.747 | 0.72 | 0.529 |
| VRFMANTDETF [F8_Y450_Y450N] | 0.928 | 0.701 | 0.568 | 0.439 | 0.653 | 0.436 | 1.12 | 0.408 | 0.462 | 0.849 | 0.408 | 0.604 | 0.44 | 0.645 | 0.722 | 0.452 |
| VRSNHYDPEED [TJP1_Y1346] | 1.27 | 0.494 | 0.608 | 0.66 | 0.748 | 0.49 | 1.19 | 0.568 | 0.579 | 0.974 | 0.526 | 0.688 | 0.445 | 1.02 | 0.744 | 0.578 |
